Test results: patent US20050079156A1, “Method of treating endometreosis” (priority 2001, published 2005)

Legend:
Type in all cases: cell-based
[1] = system: human preadipocytes; assay: Cytokine stimulation of estradiol production in human preadipocytes; settings: 72 hr, FIG. 9
Procedure: […] The amount of estradiol release in the conditioned media was determined by radioimmunoassay for estradiol using the Active™ Estradiol EIA kit according to the manufacturer's instructions (catalog no. DSL-10-4300, Diagnostic Systems Laboratories, Inc., Webster, Tex.). Each value represents the mean±S.E.M. of triplicate wells. Similar results were reproducible in 10 additional experiments using cells derived from either male or female patients.

[2] = system: human adipocytes; assay: Estradiol production in cultured human adipocytes (estradiol in conditioned media); settings: for estradiol production stimulated by a mixture of 6 cytokines: mix of IL-1b, TNF-α, IL-6, IL-8, IL-11, oncostatin M 0.01 ug/ml each, IFN-α 1 ug/ml, IFN-b 2 ug/ml, FIG. 4; for estradiol production (effect of cytokine alone): human adipocytes, different doses of IL-1α and IL-1β
Procedure: Human subcutaneous cultured adipocytes, catalog nos. SP-1012, SP-1024, SP-1096, SP-75, or SP-25 were purchased from Zen-Bio, Inc. (Research Triangle Park, N.C.) and cultured according to the manufacturer's instructions.
Human adipocytes (approximately 100,000 cells/well) were cultured for 24 hr in the presence or absence of different doses of IL-1α and IL-1β (as indicated) with and without IFN-γ (0.1 ug/ml, IL-1α, IL-1β and IFN-γ were purchased from R&D). The amount of estradiol release in the conditioned media was determined by radioimmunoassay for estradiol using the Active™ Estradiol EIA kit according to the manufacturer's instructions (catalog no. DSL-10-4300, Diagnostic Systems Laboratories, Inc., Webster, Tex.). Each value represents the mean±S.E.M. of triplicate wells.
Human adipocytes (100,000 cells/well) were cultured for 72 hr with and without increasing doses of IFN-γ (0.0001 to 1 ug/ml, purchased from R&D). The amount of estradiol in the conditioned media was determined by radioimmunoassay as described in Example 1. Each value represents the mean±S.E.M. of triplicate wells.
Human adipocytes (100,000 cells/well) were cultured for 72 hr in the presence or absence of different doses of the mix Cytokines (IL-1b, TNF-α, IL-6, IL-8, IL-11 and oncostatin M, 0.01 ug/ml/each—dilution as indicated) with and without IFN-γ (0.1 ug/ml), […] (1 ug/ml) or IFN-b (2 ug/ml). IFN-α was purchased from PBL while IFN-b was obtained from Serono. The amount of estradiol release in the conditioned media was determined by radioimmunoassay as described in Example 1. Each value represents the mean±S.E.M. of triplicate wells.
Human adipocytes (100,000 cells/well) obtained from Zen-Bio,Inc were cultured for 48 hr in the presence or absence of different doses of the cytokine mix (dilution as indicated) with and without IFN-γ (0.1 ug/ml). The amount of estradiol release in the conditioned media was determined by radioimmunoassay as described in Example 1. Each value represents the mean±S.E.M. of triplicate wells.
Human adipocytes (100,000 cells/well) obtained from Zen-Bio, Inc were cultured for 72 hr in the presence or absence of different doses of LPS (as indicated) with and without IFN-γ (0.1 ug/ml, LPS were purchased from Sigma). The amount of estradiol release in the conditioned media was determined by radioimmunoassay as described in Example 1. Each value represents the mean±S.E.M. of triplicate wells.
Human adipocytes (100,000 cells/well) obtained from Zen-Bio, Inc were cultured for 48 hr in the presence or absence of different doses of the mix LPS, PMA and PGE2 (dilution as indicated) with and without IFN-γ (0.1 ug/ml). IFN-γ was added at the same as the mix, 8 hr or 24 hr after the mix of the LPS, PMA and PGE2 which were purchased from Sigma. The amount of estradiol release in the conditioned media was determined by radioimmunoassay as described in Example 1. Each value represents the mean±S.E.M. of triplicate wells.

[3] = system: aromatase mRNA; assay: Aromatase mRNA expression in human adipocytes by RT-PCR; settings: for aromatase mRNA expression (induction by cytokine alone): cytokine 0.1 ug/ml
Procedure: Adipocyte cultures were treated with IL-1-β, IFN-γ, TNF-α, and combinations of IL-1-β, and IFN-γ and TNF-α and IFN-γ. Subsequently, total RNA from cultured adipocytes was isolated using conventional methods. The reverse transcriptase polymerase chain reaction (RT-PCR) was performed using aromatase specific primers. The amplified aromatase cDNA fragments produced by RT-PCR were separated on an agarose gel. As shown in the FIG. 3, IL-1 and TNF alone induce transcription of aromatase mRNA compared to untreated control. However, the administration of IFN-γ inhibits the transcription of aromatase mRNA when given together IL-1 or TNF.
Human adipocytes (from one flask with 100% confluence) obtained from Zen-Bio,Inc were cultured for 72 hr in the presence or absence of 0.1 ug/ml of different Cytokines as indicated with and without IFN-γ (0.1 ug/ml, all Cytokines were purchased from R&D except FAS ligand, TRAIL and OX40 Ligands were obtained from Alexis). Total RNA was extracted for RT-PCR (30 cycles with 50 ng RNA/each sample) using human aromatase and GAPDH specific oligos (20 mers).

GH: human growth hormone
estradiol production (stimulation by cytokine) ([1]; cytokine 5 ug/ml): stimulate

IFN-α
estradiol production stimulated by a mixture of 6 cytokines ([2]; 72 hr, IFN-γ 0.1 ug/ml): do not inhibit

IGF-1: insulin growth factor-1
estradiol production (stimulation by cytokine) ([1]; cytokine 5 ug/ml): stimulate

IL-1β: interleukin-1 beta, cytokine purchased from R&D
estradiol production (effect of cytokine alone) ([2]; 24 hr, FIG. 1): significantly increased estradiol production
transcription of aromatase mRNA (cytokine alone compared to untreated control) ([3]; adipocyte cultures, FIG. 3): induce
aromatase mRNA expression (induction by cytokine alone) ([3]; 72 hr, FIG. 8): induce

IL-6: interleukin-6, cytokine
estradiol production (stimulation by cytokine) ([1]; cytokine 0.5 ug/ml): stimulate
aromatase mRNA expression (induction by cytokine alone) ([3]; 72 hr, FIG. 8): induce

IL-8: interleukin-8, cytokine
estradiol production (stimulation by cytokine) ([1]; cytokine 0.5 ug/ml): stimulate

LIF: leukemia inhibitory factor, cytokine
aromatase mRNA expression (induction by cytokine alone) ([3]; 72 hr, FIG. 8): induce

TRAIL: tumor necrosis factor-related apoptosis-inducing ligand, obtained from Alexis
aromatase mRNA expression (induction by cytokine alone) ([3]; 72 hr, FIG. 8): induce

B1: OX40L: OX40 Ligand, obtained from Alexis (protein, UniProt P23510 1-183, looked up)
Tumor necrosis factor ligand …: MERVQPLEENVGNAARPRFERNKLLLVASVIQGLGLLLCFTYICLHFSALQVSHRYPRIQSIKVQFTEYKKEKGFILTSQKEDEIMKVQNNSVIINCDGFYLISLKGYFSQEVNISLHYQKDEEPLFQLKKVRSVNSLMVASLTYKDKVYLNVTTDNTSLDDFHVNGGELILIHQNPGEFCVL
aromatase mRNA expression (induction by cytokine alone) ([3]; 72 hr, FIG. 8): induce

B2: OSM: oncostatin M, cytokine (protein, UniProt P13725 26-221, looked up)
Oncostatin-M: AAIGSCSKEYRVLLGQLQKQTDLMQDTSRLLDPYIRIQGLDVPKLREHCRERPGAFPSEETLRGLGRRGFLQTLNATLGCVLHRLADLEQRLPKAQDLERSGLNIEDLEKLQMARPNILGLRNNIYCMAQLLDNSDTAEPTKAGRGASQPPTPTPASDAFQRKLEGCRFLHGYHRFMHSVGRVFSKWGESPNRSRR
estradiol production (stimulation by cytokine) ([1]; cytokine 0.5 ug/ml): stimulate

B3: IL-1α: interleukin-1-alpha, cytokine purchased from R&D (protein, UniProt P01583 113-271, looked up)
Interleukin-1 alpha: SAPFSFLSNVKYNFMRIIKYEFILNDALNQSIIRANDQYLTAAALHNLDEAVKFDMGAYKSSKDDAKITVILRISKTQLYVTAQDEDQPVLLKEMPEIPKTITGSETNLLFFWETHGTKNYFTSVAHPNLFIATKQDYWVCLAGGPPSITDFQILENQA
estradiol production (effect of cytokine alone) ([2]; 24 hr, FIG. 1): significantly increased estradiol production

B4: IL-11: interleukin-11, cytokine (protein, UniProt P20809 22-199, looked up)
Interleukin-11: PGPPPGPPRVSPDPRAELDSTVLLTRSLLADTRQLAAQLRDKFPADGDHNLDSLPTLAMSAGALGALQLPGVLTRLRADLLSYLRHVQWLRRAGGSSLKTLEPELGTLQARLDRLLRRLQLLMSRLALPQPPPDPPAPPLAPPSSAWGGIRAAHAILGGLHLTLDWAVRGLLLLKTRL
estradiol production (stimulation by cytokine) ([1]; cytokine 0.5 ug/ml): stimulate
aromatase mRNA expression (induction by cytokine alone) ([3]; 72 hr, FIG. 8): induce

B5: IFN-γ: interferon-gamma, recombinant human, purchased from R&D (protein, UniProt P01579 24-161, looked up)
Interferon gamma: QDPYVKEAENLKKYFNAGHSDVADNGTLFLGILKNWKEESDRKIMQSQIVSFYFKLFKNFKDDQSIQKSVETIKEDMNVKFFNSNKKKRDDFEKLTNYSVTDLNVQRKAIHELIQVMAELSPAAKTGKRKRSQMLFRG
estradiol production stimulated by a mixture of 15 cytokines ([2]; 15 cytokines 0.01 ug/ml each, 48 hr, IFN-γ 0.1 ug/ml, FIG. 5): inhibited
LPS stimulated estradiol production ([2]; 72 hr, IFN-γ 0.1 ug/ml, FIG. 6): inhibits
IL-1α and IL-1β induced estradiol production ([2]; IFN-γ 0.1 ug/ml, 24 hr, FIG. 1): inhibits
constitutive estradiol production ([2]; IFN-γ 0.0001 to 1 ug/ml, 72 hr, FIG. 2): dose-dependent inhibitory effect
PMA, LPS and PGE2 stimulated estradiol production ([2]; mix PMA 5 ng/ml, LPS 10 ug/ml, PGE2 10 ug/ml, 48 hr, IFN-γ 0.1 ug/ml added at same time, 8 hr or 24 hr after the mix, FIG. 7): inhibits
estradiol production stimulated by a mixture of 6 cytokines ([2]; 72 hr, IFN-γ 0.1 ug/ml): inhibits
constitutive aromatase mRNA ([3]; adipocyte cultures, Example 3): Inhibited
transcription of aromatase mRNA when given together IL-1 or TNF ([3]; adipocyte cultures, FIG. 3): inhibits
induced expression of aromatase mRNA by TRAIL, OX40, IL-1β, IL-6, IL-11 and LIF ([3]; cytokines 0.1 ug/ml, IFN-γ 0.1 ug/ml, 72 hr, FIG. 8): inhibits
